Laboratory results taken from PMC7010609 (2020).

T1: Xenopus laevis StrepII-FANCD2 (Xenopus laevis)
T1 chain: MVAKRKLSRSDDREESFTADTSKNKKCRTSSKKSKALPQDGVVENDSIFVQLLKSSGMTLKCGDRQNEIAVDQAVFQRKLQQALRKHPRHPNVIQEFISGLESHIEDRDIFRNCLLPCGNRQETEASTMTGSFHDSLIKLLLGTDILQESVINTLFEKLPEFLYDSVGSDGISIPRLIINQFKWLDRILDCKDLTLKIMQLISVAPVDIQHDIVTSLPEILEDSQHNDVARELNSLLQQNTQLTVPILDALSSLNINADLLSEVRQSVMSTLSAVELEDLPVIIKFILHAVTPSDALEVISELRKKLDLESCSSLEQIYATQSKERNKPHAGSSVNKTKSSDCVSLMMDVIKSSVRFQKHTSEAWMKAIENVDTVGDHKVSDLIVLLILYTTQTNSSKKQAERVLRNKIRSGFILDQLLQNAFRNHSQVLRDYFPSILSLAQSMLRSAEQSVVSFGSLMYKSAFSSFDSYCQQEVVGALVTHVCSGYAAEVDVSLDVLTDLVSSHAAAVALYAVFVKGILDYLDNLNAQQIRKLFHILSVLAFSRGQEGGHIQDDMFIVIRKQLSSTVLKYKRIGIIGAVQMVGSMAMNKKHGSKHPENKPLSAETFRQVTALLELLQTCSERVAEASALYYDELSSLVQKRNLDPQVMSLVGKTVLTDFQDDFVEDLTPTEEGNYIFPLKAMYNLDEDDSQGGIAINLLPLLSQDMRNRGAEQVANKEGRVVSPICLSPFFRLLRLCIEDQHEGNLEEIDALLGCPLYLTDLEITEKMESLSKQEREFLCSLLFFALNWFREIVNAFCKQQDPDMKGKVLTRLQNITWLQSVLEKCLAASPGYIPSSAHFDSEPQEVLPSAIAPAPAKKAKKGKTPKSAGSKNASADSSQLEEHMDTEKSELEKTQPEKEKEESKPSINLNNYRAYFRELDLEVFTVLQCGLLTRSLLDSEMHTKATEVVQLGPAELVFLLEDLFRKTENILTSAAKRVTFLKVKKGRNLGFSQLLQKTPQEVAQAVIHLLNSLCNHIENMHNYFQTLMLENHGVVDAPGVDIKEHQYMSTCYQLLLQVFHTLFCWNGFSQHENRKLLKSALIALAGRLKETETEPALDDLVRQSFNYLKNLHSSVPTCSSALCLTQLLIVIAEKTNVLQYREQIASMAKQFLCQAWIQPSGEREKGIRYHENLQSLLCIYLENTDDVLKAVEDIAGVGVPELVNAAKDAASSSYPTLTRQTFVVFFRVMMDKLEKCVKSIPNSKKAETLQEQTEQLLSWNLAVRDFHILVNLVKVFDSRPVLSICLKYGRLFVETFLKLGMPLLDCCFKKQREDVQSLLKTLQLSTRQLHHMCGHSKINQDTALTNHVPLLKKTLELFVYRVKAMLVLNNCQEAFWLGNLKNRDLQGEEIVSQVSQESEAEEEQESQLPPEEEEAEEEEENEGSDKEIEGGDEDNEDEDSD

T2: Xenopus laevis StrepII-FANCD2
T2 chain: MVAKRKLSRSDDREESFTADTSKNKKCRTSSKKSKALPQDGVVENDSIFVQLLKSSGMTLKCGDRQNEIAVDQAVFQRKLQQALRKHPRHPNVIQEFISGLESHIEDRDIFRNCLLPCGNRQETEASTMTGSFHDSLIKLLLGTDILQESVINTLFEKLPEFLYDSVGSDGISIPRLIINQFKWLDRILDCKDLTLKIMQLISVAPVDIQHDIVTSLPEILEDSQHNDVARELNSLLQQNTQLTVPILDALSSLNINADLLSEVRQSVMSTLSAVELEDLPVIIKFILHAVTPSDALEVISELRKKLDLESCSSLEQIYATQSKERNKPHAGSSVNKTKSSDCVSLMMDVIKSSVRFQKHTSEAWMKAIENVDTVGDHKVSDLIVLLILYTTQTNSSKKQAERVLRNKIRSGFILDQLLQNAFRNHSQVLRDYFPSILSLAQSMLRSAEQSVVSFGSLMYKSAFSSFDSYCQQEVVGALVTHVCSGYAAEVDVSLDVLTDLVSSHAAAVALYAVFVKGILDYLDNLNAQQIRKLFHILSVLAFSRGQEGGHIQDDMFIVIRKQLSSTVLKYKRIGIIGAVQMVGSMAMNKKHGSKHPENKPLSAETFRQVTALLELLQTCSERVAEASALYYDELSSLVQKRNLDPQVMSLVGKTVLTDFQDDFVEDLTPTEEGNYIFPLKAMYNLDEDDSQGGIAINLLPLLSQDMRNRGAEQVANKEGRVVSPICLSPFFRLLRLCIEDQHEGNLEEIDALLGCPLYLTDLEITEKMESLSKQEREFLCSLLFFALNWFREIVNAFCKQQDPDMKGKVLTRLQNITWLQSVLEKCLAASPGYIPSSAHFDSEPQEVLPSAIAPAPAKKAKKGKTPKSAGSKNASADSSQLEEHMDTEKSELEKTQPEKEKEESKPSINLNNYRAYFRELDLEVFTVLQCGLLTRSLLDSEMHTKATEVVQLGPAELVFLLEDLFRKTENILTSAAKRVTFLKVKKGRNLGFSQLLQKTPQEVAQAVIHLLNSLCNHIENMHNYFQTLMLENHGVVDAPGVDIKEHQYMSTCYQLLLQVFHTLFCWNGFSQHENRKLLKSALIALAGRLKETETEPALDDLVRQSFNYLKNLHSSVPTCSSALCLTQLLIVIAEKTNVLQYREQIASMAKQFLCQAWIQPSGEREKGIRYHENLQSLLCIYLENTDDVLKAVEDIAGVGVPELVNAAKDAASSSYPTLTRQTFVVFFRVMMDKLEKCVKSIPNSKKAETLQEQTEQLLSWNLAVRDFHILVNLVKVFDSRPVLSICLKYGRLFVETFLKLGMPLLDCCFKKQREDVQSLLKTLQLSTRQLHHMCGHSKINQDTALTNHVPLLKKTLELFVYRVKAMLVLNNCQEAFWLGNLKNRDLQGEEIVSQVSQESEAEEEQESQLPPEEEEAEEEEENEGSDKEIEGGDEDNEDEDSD


Key:
Assay in all cases: Biolayer interferometry (BLItz)
[1] = molecular target: Xenopus laevis StrepII-FANCD2; settings: StrepII-FANCD2-loaded biosensors in 20 ng/mL solution; FANCI 62.5-1000 nM
[2] = molecular target: T1, Xenopus laevis StrepII-FANCD2; settings: StrepII-FANCD2-loaded biosensors in 20 ng/mL solution; FANCI 62.5-1000 nM
[3] = molecular target: T2, Xenopus laevis StrepII-FANCD2; settings: chain shown with the change; StrepII-FANCD2-loaded biosensors in 20 ng/mL solution; FANCI 62.5-1000 nM

Molecule	kon [1] [M⁻¹ s⁻¹]	kon [2] [M⁻¹ s⁻¹]	Kd [3] [nM]	koff [3] [s⁻¹]
Xenopus laevis Flag-FANCI wild type S557D; S560D; S566D; S597D; S618D; S630D	39000			
Xenopus laevis Flag-FANCI wild type S557A; S560A; S566A; S597A; S618A; S630A (protein) MDQKILSLAAEEQNDGLQSYLQNLKETELSEIITKHAVKGKDCGALLRGVFKGSPCSHDVAVRRRLAVYRHCIQLVESGDLQREVASEIMGLLMLEVHHFPGASLIELANLFADAVKAGTLSNGKSLDLFPTVLTALSSKESLAYGKGELTGEEFKKQLINSLCSSRWDPQSVIFLTSMFRDVSLSAEELQFVVEKVLRMLSKLDLQEMPPLVYQLLLLSAKGSKKNIVEGIITIFNDLDQKQLVQQENSESLDLEDATIPQDQLHHVEGTIILHIVFAIKLDQELGRELLKYLKAGQQGDSSKILCPFSAALLLSVSRIHRFQEQVFDFLKSTILRDYKDLQFHQSSKFLQDLVPQPVCVSSILLETVKNSVYGWDHVTQGLVELGFILMDSFGPKAAFGNKVVELISVHSRTPSQQACQLGSRILLETFKVHEPIRSEILEQVLNRVITKAATPVTHFIDLLSDIVVSAPLILQNSSSKVTEAFDHLSFLPLTTVQGLLKAVQPLLKISMSMRDSLILVLRKAMFSSQIDARKSAVAGFLLLLRNFKVLGSLSSAQCAQAIGAAQIQVDVHMRYNAAANEAFCLEILGSLRRCLAQQADVRLMLYEGFYDVLRRNAQLASSVMQTLLAQLKRYYEPEPDLLPPLKLEGCITAQGDHIFLQEPLAHLLCCIHHCLQWYKSSLQQHRNPDEDDDDDDQTGCQQDLNDIMESITRRMIKCDLEDFELDKSADFSLASGVGVKNNIYAVLVMGICEVLIEYNFIIANFSKSKFEDILGLFKCCSKLSDILKEKAAKGRQPGNNKTARSLISMTFVSTLLTALFRDSTRSHEESLSILRANVDFMRYSVCVALQKIQQLEETGVTDGPDGQNSEKMFRSLCEITRVLMWRYTSIPAAAENPGKKDKGKTISLLCLEGLLRVFNTVQQRYPSKIPQFLTALDALGDEDEEGSREINVTEKAAFQIKQFQRSLINQLSGGEDDFNSKEALLLVSILSTLSRLLAPSSQQFVQMLSWTVKICKETNIEDVQFCKGIMNLLFSLHVQFKSPVSVLRELCQDIHGHLGDIDQDIEVEKQSHFATVSLKTAAPTVTLLVLGQAAKVLEEVDWLIIKLKGLLGSEKLSTEDLTQTSNARVPIEKAIILQLGTLLTACHELVQTALPAGSCTDTLLKELAKMYTILTSVVKYYLQICSSHGGQISARLEKLVKLSGSHLTPQCYAFITYVQNIHSESLSLAAEKKKKKKEEALTVTSAKILRDTKPIPNLIFAIEQYEKFLIHLSKKSKVNLMQYMKLSTSRDFRINAATLDAALQEKGSEDEENEPDNEQAVTEEESQEPKKKRRRK		11000	10.1	9e-05
